Source: patent US20250250357A1 (NANJING ZAIMING PHARMACEUTICAL, published 2025)

The binders below were run against T1, human MSLN-FL-his protein (human, UniProt Q13421 296-580) (assay: SPR (Biacore), antibody captured on Protein A chip;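 further: flow cell at 25 °C, antigen injected for 240 s at five concentrations from 200 nM downward, dissociation followed up to 600 s, double-referenced, fitted with Langmuir 1:1 model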).
T1 construct: made in HEK293E cells, purified on nickel column; also called hMSLN-FL-his; human MSLN full-length protein; not shown: His tag
T1 sequence (Q13421 other isoform, or with tags, fused parts or gaps): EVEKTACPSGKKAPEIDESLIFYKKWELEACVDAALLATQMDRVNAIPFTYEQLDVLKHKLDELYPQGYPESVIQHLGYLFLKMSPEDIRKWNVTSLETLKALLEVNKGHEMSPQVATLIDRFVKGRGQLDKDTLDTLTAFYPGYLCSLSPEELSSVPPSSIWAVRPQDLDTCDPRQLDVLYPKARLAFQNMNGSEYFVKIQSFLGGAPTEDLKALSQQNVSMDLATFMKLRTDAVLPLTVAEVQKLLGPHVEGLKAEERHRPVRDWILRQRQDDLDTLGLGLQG

Binder | Kd [nM] | koff [s⁻¹] | kon [M⁻¹ s⁻¹]
S009-F7.6.17 (antibody, human IgG1, kappa, V domains shown, human-murine chimeric antibody, human IgG1/kappa constant regions) VH: QVQLQQSGAELARPGASVKMSCKASGYTFTTYTMHWVKQRPGQGLEWIGYISPTGDFTKYNQKFKDKATLTTDKSSNTAFMQLSSLTSEDSAVYYCARWNGTVWFAYWGQGTLVTVSA VL: DIVMTQSQKFMSTSVGDRVTVTCKASQALGTNVAWYQQKPGQSPKVLIYSASYRYSGVPYRFAGGGSGTDFTLTITNVQSEDLAEYFCQQYNNYPLTFGAGTKLELKR | 1.18 | 0.000389 | 329000
S009-F7.23.19 (antibody, human IgG1, kappa, V domains shown, human-murine chimeric antibody, human IgG1/kappa constant regions) VH: EVKLVESGGGLVQPGGSLSLSCAASGFTFTDYYMSWVRQPPGKALEWLGFIRSKANAYTTEYSASVKGRFTISRDNSQSILYLQMNDLRAEDSATYYCARYYYYGSGYVWYFDVWGTGTTVTVSS VL: DIVMTQSQKFMSTSVGDRVSVTCKASQSVGTNVAWYQQKPGQFPKALIYSASYRYSGVPDRFTGSGSGTDFTLTIINVQSEDLAEYFCQQYNSYPLTFGAGTKLELKR | 13.6 | 0.00695 | 511000
S009-F7.65.13 (antibody, human IgG1, kappa, V domains shown, human-murine chimeric antibody, human IgG1/kappa constant regions) VH: EVQLQQSGPELVKPGTSVKILCKASGDTFTAYNMDWVKQRHGQSLEWIGDINPNTDSTIYNQKFEGKAILTVDKSSSTAYMELRSLTSEDTAVYYCARRKLGRGYFDYWGQGTTLTVSS VL: QIVLTQSPAIMSASPGEKVTMTCSVNLSVRYIYWYQQKPGSSPRLLIHDTSNLASGVPVRFSGSGSGTSYSLTISRMEAEDAATYYCQQWSSFPYTFGGGTKLEIKR | 1.44 | 0.000538 | 374000
S009-F7.53.2 (antibody, human IgG1, kappa, V domains shown, human-murine chimeric antibody, human IgG1/kappa constant regions) VH: EVQLQQSGPELVKPGASVKIPCKTSGYTFTDYNMDWVKQSHGKSLEWIGDINPNTDGAIYNQKFQNKATLTVDKSSSTAYMELRSLTSEDTAVYYCTRRKLGRKFFDYWGQGTTLTVSS VL: QIVLTQSPAIMSASPGEQVTMTCSASSSVGYMNWYQQKPGSSPRLLIYDTSNLASGVPVHFSGSGSGTSYSLTISRMEAAFAATYYCQQWYVYPYTFGGGTKLEIKR | 3.27 | 0.00065 | 199000
S009-F7.11.11 (antibody, human IgG1, kappa, V domains shown, human-murine chimeric antibody, human IgG1/kappa constant regions) VH: EVQLQQSGPELVKPGASVKIPCKASGYTITDYNMDWVKQSRGKSLEWIGDVFPYNGDSIYNQKFEGRATLTVDKYSSTAYMELRGLTSEDTAVYFCARRKTGTGYFDVWGTGTTVTVSS VL: QLVLTQSPAIMSASPGEKVTLTCSASSSVSSTYLSWYLQKPGSSPKLWIYSTSNLASGVPARFSGSGSGTSYSLTISSMEAEDAASYFCHQWSSYPYTFGGGTKLEIKR | 0.181 | 0.00024 | 1.33e+06
S009-F7.12.13 (antibody, human IgG1, kappa, V domains shown, human-murine chimeric antibody, human IgG1/kappa constant regions) VH: EVQLQQSGPELVKPGASVKIPCKASGYTFTDYNMDWVKQSHGKGLEWIGDINPNTDDTIYNQKFNGKATLTVDKSSSTAYMELRSLTSEDTAVYYCSRRLIGTGYFDVWGTGTTVTVSS VL: QIVLTQSPAIMSASPGEKVTLTCSASSSVISTYLCWYRQKPGSSPELWIYSTSNLASGVPARFSGSGSGTSYSLTISSMEAEDAASYFCHQWSNYPYTFGGGTKLGMKR | 40.5 | 0.00892 | 220000
S009-F7.44.20 (antibody, human IgG1, kappa, V domains shown, human-murine chimeric antibody, human IgG1/kappa constant regions) VH: EVQLQQSGPELVKPGASVKIPCKASGYTFTDYNMDWVKQSHGKSLEWIGDINPSTGGTIYNQKFNGKATLTEDKSASTVYMEFRSLTSDDTAVYYCARRRIGTGYFDVWGTGTTVTVSS VL: QIVLTQSPALMSASPGEKVTLTCSASSSVISSYLSWYQQKPGSSPKLLIYRTSNLASGVPARFSGSGSGTSYSLTISSMEAEDAASYFCHQWSSFPYTFGGGTKLEIKR | 3.01 | 0.00106 | 351000
S009-F7.61.21 (antibody, human IgG1, kappa, V domains shown, human-murine chimeric antibody, human IgG1/kappa constant regions) VH: DVQLQQSGPELVEPGASVRIPCKAAGHTFTDYNVDWVKQSHGQSLEWIGDVNPNTDGAIYNQKFEGKATLTVDTSSSTAYMELRSLTSEDTAVYFCARRRLGQGGFDSWGQGTTLTVSS VL: QVVLTQSPAIMSASPGEKVTLTCGASSSLISKYLYWYQQKPGSSPKLWIYSTSNLASGVPARFSGSGSGTSYSLTISSMEAEDAASYFCHQWSSYPYTFGGGTKVEIKR | 5.03 | 0.00154 | 306000
S009-F7.21.16 (antibody, human IgG1, kappa, V domains shown, human-murine chimeric antibody, human IgG1/kappa constant regions) VH: QVQLQQPGTELVKPGASVKLSCKASGYTFTTFWMHWVKQRPGQGLEWIGGVNPTNGGTNYNEKFRTKATLTVDKSSTTADMQLSSLTSEDSAVYYCAPHYISSRPGFAYWGQGTLVTVSG VL: DIVMTQSQKFMSTSGGDRVSVTCKASQNVGTNVAWYQQKPGQSPKALIYSASYRYSGVPDRFTGSGSGTDFILTISNVQSEDLAEYFCQQYNSYPLTFGGGTKLEIKR | 1.69 | 0.000773 | 458000
S009-F7.48.1 (antibody, human IgG1, kappa, V domains shown, human-murine chimeric antibody, human IgG1/kappa constant regions) VH: QVQLQQPGTELVKPGASVKLSCKASGYTFTSYWMHWVKQRPGQGLEWIGNINPSNGGTNNNENFKSKATLTVDTSSSTAYMQLSSLTSEDSAVYYCVRNGYHGYWYFDVWGTGTTVTVSS VL: DIVMTQSQKFMSTSVGDRVSVTCKASQNVGTNVAWYQQQPGQSPKALIYSASYRYSGVPDRFTGSVSGTDFTLTISNVQSEDLAEYFCQQYNSYPLTFGGGTKLEIKR | 17.8 | 0.000413 | 23100
S009-F7.25.19 (antibody, human IgG1, kappa, V domains shown, human-murine chimeric antibody, human IgG1/kappa constant regions) VH: QVQLQQPGTELVKPGASVKLSCKASGYTFTSYWMHWVKQRPGQGLEWIGNIIPSNGGTKYNEKFKSKATLTVDKSSSTAYMQLSSLTSEDSAVYYCSPHYYGGSPGFAYWGQGTLITVSA VL: DIVMTQSQKFMSTSVGDRVSVICKASQNVGTNVAWYQQKPGQSPKALIYSASYRYSGVPDRFTGSGSGTDFTLTISNVQSEDLAEYFCQQYNSYPLTFGGGTKLEIKR | 2.71 | 0.00113 | 417000
S009-F7.30.5 (antibody, human IgG1, kappa, V domains shown, human-murine chimeric antibody, human IgG1/kappa constant regions) VH: QVQLQQPKTELVKPGASVKLSCKASGYIFTTYWMHWVKQRPGQGLEWIGNVNPSNGGTMYNEKFERRATLTVDKSSSTADMQLSSLTSEDSAVYYCVPHYIGSRPGFAYWGQGTLVTVSG VL: DIVMTQSQKFMSTSVGDRVSVTCKASQNVGTNVAWYQHKPGQSPKALLYSASYRYSGVPDRFTGSGSGTDFTLTITNVQSEDLAEYFCQQYNSYPLTFGGGTKLEIKR | 3.83 | 0.000705 | 184000
S009-F7.33.24 (antibody, human IgG1, kappa, V domains shown, human-murine chimeric antibody, human IgG1/kappa constant regions) VH: QVQLQQPGTELVKPGASVKLSCKASGYTFTSYWMHWVKQRPGQGLEWIGNVNPSNGGSNYNEKFKNKATLTVDKSSSTADMQLNSLTSEDSAVYYCAPHYIGSRPGFAYWGQGTLVTVSG VL: DIVMTQSQKFMSTSVGDRVSVTCKASQNVGTNIAWYQQKPGQSPKALIYSASYRYSGVPDRFTGSGSGTDFTLTITNVQSEDLAEYFCQQYNSYPLTFGGGTKVEIKR | 10.2 | 0.00506 | 498000
S009-F7.26.15 (antibody, human IgG1, kappa, V domains shown, human-murine chimeric antibody, human IgG1/kappa constant regions) VH: DVQLQESGPGLVKPSQTVFLTCTVTGISITTGNYRWSWIRQFPGNKLEWIGYIYYTGFITYNPSLTSRTTITRDTPKNQFFLEMKSLTAEDTATYYCARDDYDYDVFAYWGQGTLVTVSA VL: DIQMTQSPASLSASVGETVTITCRASGNIHNYLAWYHQKQGKSPQFLVYKAKTLADGVPSRFSGSGSGTQYSLKINRLQPEDFGSYYCQHFLSIPLTFGAGTKLELKR | 0.2 | 0.000975 | 4.88e+06
S009-F7.41.18 (antibody, human IgG1, kappa, V domains shown, human-murine chimeric antibody, human IgG1/kappa constant regions) VH: QVQLQQPGTELVKPGASVKLSCKASDYTFTSYWMHWVKQRPGQGLEWIGSINPSNGDTYYNEKFKNKATLTVDKSSSTAYMQLSSLTSDDSAVYYCARGWYFDVWGTGTTVTVSS VL: not shown | 0.418 | 8.35e-05 | 200000
S009-F7.69.8 (antibody, human IgG1, kappa, V domains shown, human-murine chimeric antibody, human IgG1/kappa constant regions) VH: EVHLQQSGPELVKPGASVRIPCKASGYTFTDYNMDWVKQSHGKSLEWIGDINPDNGGTIYTQKFKGKATLTVDKSSSTAYMELRSLTSEDTAVYYCARRLHYYGSSGLDYWGQGTTLTVSS VL: DIQMTQSPASLSAYVGETVTITCRASGNIHNYLAWYQQKQGKSPQLLVYNAKTLADGVPSRFSGSGSGTQYSLKINSLQPEDFGSYYCQHFWSTVWTFGGGTKLEIKR | 6.51 | 0.00447 | 687000
S009-F7.67.12 (antibody, human IgG1, kappa, V domains shown, human-murine chimeric antibody, human IgG1/kappa constant regions) VH: QVQLQQPGTELVKPGASVRLSCRASGYSFSSYWMHWVKQRPGQGLEWLGNINPTTGDINYNEKFRNRATLAVDKSSTTAYLQLTSLTSEDSAVYFCVRHDGFLWGQGTTLTVSS VL: DIQMTQSPASLSASVGETVTITCRASENIYSYLAWYQQKQGKSPQLLVYYAKTLAEGVSSRFSGSGSGTQFSLKINSLQPEDFGTYYCQHQFGTPRTFGGGTKLEIRR | 0.602 | 0.00065 | 1.08e+06
S009-F7.66.12 (antibody, human IgG1, kappa, V domains shown, human-murine chimeric antibody, human IgG1/kappa constant regions) VH: QIPLQQSGPELVKPGASVRISCKASDYAFSSSWMNWVKQRPEKGLEWIGRIFVESGNTHYNDKFNGKATLTADKSSRTAYIQLSSLTSEDSAVYFCTRENIFYHGHSSWFAYWGQGTLVTVSA VL: DIVLTQSPASLVVSLGQRATISCRAGESVDDFGISYVHWYQQKPGQPPKLLIYRAANLESGIPARFSGSGSRTDFTLTINPVETDDVAIYYCQQNNKDPFTFGSGTKLEIKR | 13.1 | 0.00236 | 180000

What follows are binders tested against T2, human MSLN-FL-his protein (human, UniProt Q13421 296-580) (assay: ELISA, coated MSLN full-length;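 further: binding of chimeric antibodies to plate-bound antigen, read by TMB colour after acid stop, antibody incubated 2 h at 37 °C, negative control antibody run alongside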).
T2 construct: also called human MSLN full-length protein; hMSLN-FL-his; not shown: His tag
T2 sequence (Q13421 other isoform, or with tags, fused parts or gaps): as the sequence (Q13421 other isoform, or with tags, fused parts or gaps) above

Binder | OD450 at 0.0001 nM [OD450] | OD450 at 0.001 nM [OD450] | OD450 at 0.01 nM [OD450] | OD450 at 0.1 nM [OD450] | OD450 at 1 nM [OD450] | OD450 at 10 nM [OD450] | OD450 at 100 nM [OD450] | OD450 at none (no antibody) [OD450]
S009-F2.38.12 (antibody, human IgG1, kappa, V domains shown, Human-murine chimeric antibody, human IgG1/kappa constant regions) VH: QVQLQQPGTELVKPGASVKLSCKASGYTFTSYWMHWVKQRPGQGLEWIGNINPSNGGTNYNEKIKNKATLTVDKSSSTAYMQLSSLTSEDSAVYYCARWNYYGNYPFDYWGQGTTLTVSS VL: DIVMTQSQKFMSTTVGDRVSITCKASQNVGTAVAWYQQKPGQSPKLLIYSASNRYTGVPDRFTGSGSGTDFTLTISNMQSEDLADYFCQQYSSYPLTFGAGTKLELKR | 0.06 | 0.09 | 0.46 | 1.85 | 2.56 | 2.43 | 2.57 | 0.06
